Paper doi:10.1101/2024.01.09.574827, “Discovery and binding mode of small molecule inhibitors of the apo form of human TDO2” (bioRxiv, 2024)

Biological target: the molecule itself
Assay: crystal structure; sitting drop vapour diffusion at 293 K; truncated apo-TDO2 with 2 mM AMT, alone or after incubation with 1 mM inhibitor (Rac-1, Cpd-1, Cpd-4)

B1: truncated human apo-TDO2 (aa 39-389) with a C-terminal hexa-histidine tag (enzyme, UniProt P48775 39-389, looked up)
chain: GLIYGNYLHLEKVLNAQELQSETKGNKIHDEHLFIITHQAYELWFKQILWELDSVREIFQNGHVRDERNMLKVVSRMHRVSVILKLLVQQFSILETMTALDFNDFREYLSPASGFQSLQFRLLENKIGVLQNMRVPYNRRHYRDNFKGEENELLLKSEQEKTLLELVEAWLERTPGLEPHGFNFWGKLEKNITRGLEEEFIRIQAKEESEEKEEQVAEFQKQKEVLLSLFDEKRHEHLLSKGERRLSYRALQGALMIYFYREEPRFQVPFQLLTSLMDIDSLMTKWRYNHVCMVHRMLGSKAGTGGSSGYHYLRSTVSDRYKVFVDLFNLSTYLIPRHWIPKMNPTIHKFL
notes: human tryptophan-2,3-dioxygenase (TDO2), P48775.1, amino acids 39-389, heme-free (apo) form; S1 Text is said to show additional amino acids introduced as a linker or during subcloning; calculated molecular mass 42940.24 Da; also called tryptophan-2,3-dioxygenase; TDO2 aa39-389-His6; source: E. coli RP523 (hemB mutant, unable to synthesize heme), anaerobic expression, purified (HisTrap, HiTrap Q, …)
B1 was tested, and the “stoichiometry N” value was 4.
